Data as given in patent publication US20230174670A1 (JIANGSU HENGRUI PHARMACEUTICALS, published 2023).

Columns and labels:
human CD25 on cells [1] = biological target: T1, human CD25 on cells (human, UniProt P01589 22-272); assay: cell-based or functional assay
T1 sequence (looked up): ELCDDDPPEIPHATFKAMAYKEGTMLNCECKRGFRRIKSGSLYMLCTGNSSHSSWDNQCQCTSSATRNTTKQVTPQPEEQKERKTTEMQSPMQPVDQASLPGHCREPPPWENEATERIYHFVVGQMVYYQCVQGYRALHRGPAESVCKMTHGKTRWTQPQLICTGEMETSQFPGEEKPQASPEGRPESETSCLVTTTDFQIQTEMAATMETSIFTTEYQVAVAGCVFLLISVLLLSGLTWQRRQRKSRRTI

human CD25 on cells [2] = biological target: T1, human CD25 on cells; assay: flow cytometry on SU-DHL-1 cells
Procedure: Since the lymphoma cell line SU-DHL-1 highly expresses CD25, the binding of chimeric anti-CD25 antibodies to SU-DHL-1 cells was determined by flow cytometry. SU-DHL-1 cells in logarithmic growth phase were selected, collected, washed with PBS, and centrifuged. Each well was plated with 100 μL of 2×10⁵ cells and centrifuged at 400 g for 5 min. The test antibodies at different concentrations were added, incubated on ice for 1 h, washed with PBS, and centrifuged at 400 g for 5 min.

[3] = biological target: T2, recombinant human CD25-His protein (human, UniProt P01589 22-213); assay: ELISA, plate coated with human CD25-His
T2 construct: range 22-213; Purchased from Sino Biological Inc. Printed construct Met1-Cys213 includes the signal peptide
T2 sequence (looked up): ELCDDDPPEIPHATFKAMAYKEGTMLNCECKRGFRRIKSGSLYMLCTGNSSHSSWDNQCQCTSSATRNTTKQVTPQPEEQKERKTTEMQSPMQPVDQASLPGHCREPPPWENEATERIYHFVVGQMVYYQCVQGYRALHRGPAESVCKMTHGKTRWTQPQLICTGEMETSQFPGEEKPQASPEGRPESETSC
Procedure: (§1) The binding activity of the chimeric anti-CD25 antibody and the CD25 recombinant protein was assayed by ELISA. The 96-well plate was coated with human CD25-His/monkey CD25-His at a concentration of 1 g/mL at 50 μL/well. The unbound antigen was washed away with a washing solution (1×PBST). After washing, the plate was blocked with 1% BSA blocking solution prepared in 1×PBST at 37° C. for 1 h. After washing 3 times with the washing solution, the test chimeric antibodies at different dilution concentrations was added and incubated in an incubator at 37° C. for 1 h. After washing 3 times with the washing solution, 100 μL of goat anti-human IgG secondary antibody diluted at 1:5000 was added and incubated in an incubator at 37° C. for 0.5 h. The plate were washed, the TMB color developing solutions A and B were mixed in a 1:1 ratio for color development. After 15 min, the color development reaction was terminated with 1M hydrochloric acid, and the fluorescence value at 450 nm was measured.

[4] = biological target: T3, recombinant monkey CD25-His protein (monkey (cynomolgus), UniProt H6WS54 1-213); assay: ELISA, plate coated with monkey CD25-His
T3 construct: range 1-213; also called cynomolgus monkey (Cyno) CD25
T3 sequence: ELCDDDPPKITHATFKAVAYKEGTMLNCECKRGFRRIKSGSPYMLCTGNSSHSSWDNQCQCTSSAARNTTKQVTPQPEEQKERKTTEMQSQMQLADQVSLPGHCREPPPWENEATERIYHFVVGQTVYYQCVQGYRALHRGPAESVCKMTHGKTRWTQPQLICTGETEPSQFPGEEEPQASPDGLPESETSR
Procedure: as §1

Binder | ADCC activity, Multiple of maximum fluorescence value (vs. IgG) (human CD25 on cells [1]) [fold] | EC50 (human CD25 on cells [2]) [nM] | EC50 [3] [nM] | EC50 [4] [nM]
PR071 (antibody, human IgG1, kappa, V domains shown) VH: EVQLVQSGSELKKPGASVKVSCKASGYTFTDYYINWVRQAPGQGLEWMAWIFPGNGNTYFNENFKDRVTLTADKFSSTAYMELSSLRSEDTAVYYCARATYDHGGYWYFDVWGQGTTVTVSS VL: EIVLSQSPATLSLSPGERATLSCRASSSVSHIHWYQQKPGSSPKPWIYATSNLASGVPGRFSGSGSGTSYSLTVSRVEAEDAATYYCQHWNSFTFGGGTKVEIKR | 322 |  |  | 
PR031 (antibody, human IgG1, kappa, V domains shown) VH: EVQLVQSGAEVKKPGASVKVSCKASGYTFTTYDINWMKQHPGKGLEWIGWIYPRDGSTKYNAKFKGKATLTEDTSANTAYMELSSLRSEDTAVYYCARERIYDGSFDYWGQGTTVTVSS VL: DIVMTQSPDSLAVSLGERATINCKSSQRLFNSRDQKNYLAWYQQKPGQPPKLLIYGASTRESGVPDRFSGSGSGTDFTLTISSLQAEDVAVYYCQNDHIYPLTFGQGTKLEIKR | 192 |  |  | 
cAb042 (antibody, human IgG1, V domains shown, also called mAb042/cAb042) VH: QVQLQQSGPELVKSGASVKLSCKASGYTFTTYDINWMKQRPGQGLEWIGWIYPRDGSTKYNAKFKGKATLTEDTSSNTAFMELHSLTSEDSAVYFCARERIYDGSFDYWGQGTTLTVSS VL: DIVMTQSPSSLSVSAGEKVSMRCKSSQRLFNSRDQKNYLAWYQQKPGQPPKLLIYGASTRESGVPDRFTGSGSGTDFTLTISSVQAEDLAVYYCQNDHIYPLTFGAGTKLELK |  | 0.501 | 0.224 | 0.349
cAb006 (antibody, human IgG1, V domains shown, also called mAb006/cAb006) VH: QIQLQQSGAELMKPGASVKLSCKATGYTFTGHWIEWVKQRPGHGLEWVGEILPGSNKINYNEKFKGKATFTAETSSNTVYMQLSSLTTEDSAIYYCAGGGGPHWPFAFWGQGSLVTVSA VL: DIVLTQSPASLTVSLGQRATISCRASESVNVHGAHLMHWYQQKPGQPPKLLIYAASILESGVPARFSGSGSETDFTLNIHPVEEEDAATYFCQQTIEDPRTFGGGTKLEIK |  | 0.329 | 0.2 | 0.234
cAb001 (antibody, V domains shown, also called mAb001/cAb001) VH: QVTLKESGPGILQPSQTLSLTCSFSGFSLNTFGMGVGWIRQPSGKGLEWLAHIWWDDDKYYNPALKSRLTISKDTSKNQVFLKIANVDTADTVTYYCARITTEVGNYDVWGMGTTVTVSS VL: EIVLTQSPALMAASPGEKVTITCSVSSGITSNNLHWYQQKSETSPKPWIYGTSNLASGVPIRFSGSGSGTSYSLTISSMEAEDAATYYCQQWSSYPFTFGSGTKLEIK |  | 0.18 | 0.228 | 0.399
cAb002 (antibody, human IgG1, V domains shown, also called mAb002/cAb002) VH: QVTLKESGPGILQPSQTLSLTCSFSGFSLSTFGLGVGWIRQPSGKGLEWLAQIWWDDDEYYNPALKSRLTISKDTSRNQVFLKIANVDTGDTATYFCARMGDTYWYFDVWGTGTTVAVSS VL: EIVVTQSPALMAVSPGEKVTITCSLSSGITSSNLHWYQQKSETSPKPWIYGTSNLASGVPVRFSGSGSKTSYSLTISSMEAEDAATYYCQQWSSYPFTFGSGTKLEIK |  | 0.1 | 0.274 | 0.524
cAb029 (antibody, human IgG1, V domains shown, also called mAb029/cAb029) VH: QVTLKESGPGILQPSQTLSLTCSFSGFSLSTFGMGVGWIRQPSGKGLEWLAHIWWDDDEYYNPALKSRLTISKDTSKNQVFLKIANVDTADTATYYCTRIMLTTGYFDVWGTGTTVTVSS VL: EIVLTQSPALMAASPGEKVTITCTVSSGITSSNLHWYQQKSETSPKPWIYGTSNLASGVPVRFSGSGSGTSYSLTISSMEAEDAATYYCQQWSSYPFTFGSGTRLEIK |  | 0.119 | 0.166 | 0.115
cAb037 (antibody, human IgG1, V domains shown, also called mAb037/cAb037) VH: QVRLQQSGPELVKPGASVQMSCKASGYTFTDYYINWVKQRPGQGLEWIAWIFPGNGNTYFNENFKDKATLSVDKFSSTAFMLLSSLTSEDSAVYFCARATYDHGGYWYFDVWGTGTTVTVSS VL: QIVLSQSPAILSASPGEKVTMTCRASSSVSHIHWYQQKPGSSPKPWIYATSNLASGVPGRFSGSGSGTSYSLTVSRVEAEDAATYYCQHWNSFTFGGGTELELK |  | 0.15 | 0.165 | 0.147
PR058 (antibody, human IgG1, kappa, V domains shown) VH: EVQLVESGGGLVQPGGSLRLSCAASGFTFSSYAMSWVRQAPGKRLEWVATISEGGSYTYYPDNVKGRFTISRDNSKNTLYLQMNSLRAEDTAVYLCVRDNPWFAYWGQGTLVTVSS VL: DVLMTQSPLSLPVTPGEPASISCRSSQNIVHSNGNTYLEWFLQKPGQSPKLLIYKVSKRFSGVPDRFSGSGSGTDFTLKISRVEAEDVGVYYCFQGSHVPYTFGGGTKVEIKR | 386 |  |  | 
7G7B6 (antibody, V domains shown) VH: EVQLVESGGDLVQPRGSLKLSCAASGFTFSSYGMSWVRQTPDKRLELVATINGYGDTTYYPDSVKGRFTISRDNAKNTLYLQMSSLKSEDTAMYFCARDRDYGNSYYYALDYWGQGTSVTVSS VL: QIVLSQSPAILSASPGERVTMTCRASSSVSFMHWLQQKPGSSPKPWIYATSNLASGVSARFSGSGSGTSYSLTITRVEAEDAATYYCQQWSSNPPAFGGGTKLEIK | 13.3 |  |  | 
PR006 (antibody, human IgG1, kappa, V domains shown) VH: EVQLVQSGAEVKKPGASVKVSCKASGYTFTGHWIEWVRQAPGQGLEWMGEILPGSNKINYNEKFKGRVTFTADTSTSTVYMELSSLRSEDTAVYYCAGGGGPHWPFAFWGQGTLVTVSS VL: DIVMTQSPDSLAVSLGERATINCRASESVNVHGAHLMHWYQQKPGQPPKLLIYAASILESGVPDRFSGSGSGTDFTLTISSLQAEDVAVYYCQQTIEDPRTFGGGTKVEIKR | 239 |  |  | 
cAb028 (antibody, human IgG1, V domains shown, also called mAb028/cAb028) VH: EVQLQQSGAELVRPGASVKLSCTASGFNIKNDYVHWVKQRPEQGLEWIGYIDPDNGDTEYASKFLGKATITADTSSNTAYLQLSSLTSEGTAVYYCTTDDTSYGMFACWGLGTLVTVSA VL: DVLMTQTPLSLPVSLGDQASISCRSSQSIVHSNGNTYLEWYLQKPGQSPKLLIYKVSNRFSGVPDRFSGSGSGTDFTLKISRVEAEDLGVYYCFQGSHVPWTFGGGTKLEIK |  | 0.132 | 0.344 | 0.23
cAb046 (antibody, human IgG1, V domains shown, also called mAb046/cAb046) VH: EVQLVESGGGLVKPGGSLKLSCAASGFTFSSYAMSWVRQTPEKRLEWVATISEGGSYTYYPDNVKGRFTISRDNARNNLYLQMSHLKSEDTAMYLCVRDNPWFAYWGQGTLVTVST VL: DVLMTQTPLSLPVSLGDRASISCRSSQNIVHSNGNTYLEWFLQKPGQSPKLLIYKVSKRFSGVPDRFSGSGSGTDFTLKISRVEAEDLGVYYCFQGSHVPYTFGGGTKLEIK |  | 0.345 | 0.355 | 5.57
cAb004 (antibody, human IgG1, V domains shown, also called mAb004/cAb004) VH: EVQLQQSGAELVRPGASVKLSCTASGFNIKDDYIQWVKQRPEQGLEWIGWIDPENGDTEYASKFQDKATITSDTSSNTAYLQLSSLTSEDTAVYYCAATTFYASNYGFAYWGQGTLVTVSA VL: DVVMTQTPLSLPVSLGDQASISCRSSQSLVHSNGNTYLHWYLQKPGQSPQLLIYKVSNRFSGVPDRFSGSGSGTDFTLKISRLEAEDLGVYFCSQSTHVPYTFGGGTKLEIK |  | 0.168 | 0.255 | 0.311
